# Measurements published in US20240150744A1, “ACYL ACTIVATING ENZYME AND A TRANSGENIC CELL, TISSUE, AND ORGANISM COMPRISING SAME” (YEDA RESEARCH AND DEVELOPMENT CO. LTD., priority 2021, published 2024).
# B1: HuAAE2: H. umbraculigerum acyl activating enzyme, recombinantly expressed in E. coli and purified (protein)
# chain: MDALRKPNSANSSPLTPIGFLERAAVVFANSPSIVYNNLIYTWSDTFHRCLRLASSISRLAIRKGDVVSVLAPNIPAIYELHFGITMTGAIINTINTRLDARTISILLCHSESKLVFVDYQLTRLIREAVSLMPDACVPPQLVLIVDDGHNLSLLSDQFINTYEAMVETGDPGFNWVRPDSDWDPLTLNYTSGTTSSPKGVVNSHRGSFIVAFDSLLEWHVPKQPIMLWTLPMFHANGWSFVWGMAAVGGTNVCLRKFDATIIYDTIRNHHVTHMCGAPVVLNMLSEGKPLEHTVHIMTAGAPPPAAVLLRTESLGFEVTHGFGMTETGGLVVSCSWKKEWNRLPVTEKARLKARQGVRTLGMTEVDIVDPESGVSVTRDGLTQGELVLRGGSIMLGYLKDPETTNKSVKNGWFYTGDVAVMHPDGYLEIKDRSKDVIISGGENISSVEVESILYQHPAINEAAVVGRPDEFWGESPCAFVSLKDDNGKVAVPTADEIMKFCKGKLPGYMVPKSVVFKKDLPKTSTGKIQKYVLRKLAKDLGFAVKSRI
# B2: HuAAE4: H. umbraculigerum acyl activating enzyme, recombinantly expressed in E. coli and purified; great homology to CsAAE1 (protein)
# chain: MVYKSLNSISISDIVNLGISPETATQLHQKLTEIIQIYGFDAPQTWTQISTRILHPDLPFCFHQMMYYGCYVDFGPDPPAWSPDPKDAKLTNIGSLLERRGKEFLGPSYKDPISSYSALQEFSALNLEVFWKTILDEMNITFSVPPKRILVDDLSKESQLLHPGGRWLPGAYVNPARNCLSLSSKRRLSDIAVIWRDEGNDDMPVNKMTFQQLRSEVWLVAYALDTLGVEKGSAIAIDMPMDVKSVVIYLAIVLAGYVVVSIADSFAAGEISTRLVLSKAKAIFTQDLIIRGDRSHPLYSRVVDAQSPLAIVIPTRGSSFSIKLRDGDISWHDFLERANTYRNVEFVAVERPVEAFSNILFSSGTTGEPKAIPWTLATPFKAGADAWCHMDVHKGDVVAWPTNLGWMMGPWLIYASLLNGGSLALYNGSPLTSGFAKFVQDAKVTLLGVIPSIVRAWRTNNSTAGFDWSTIRCFGSTGEASNTDECLWLMGRAHYKPVIEYCGGTEIGGGFITGSLLQPQCLSAFSTPSLGCKLLILGEDGIPIPQNAPGIGELALNPLMFGASSTLLNANHYDVYFKGMPSWNGKVLRRHGDVFERTSKGYYRAHGRADDTMNLGGIKVSSVEIERVCNSIDDRILETAAIGVTPSGGGPERLVIVVAFKDGSGSKPDLIKLKVTLNSALQKNLNPLFKVSDVVPFPSLPRTATNKVMRRVLRQQLTQIGQNSKL
# B3: HuAAE3: H. umbraculigerum acyl activating enzyme, recombinantly expressed in E. coli and purified (protein)
# chain: MTEEEKNKAESMGIKTYAWSDFLHLGSKNPSELQTPKATDICTIMYTSGTSGDPKGVILTHENATTNIRGVDLFMEQFEDKMTVDDVYISFLPLAHILDRMIEEYFFRSGASVGFYHGDINALKEDLAELKPTFLAGVPRVLEKIHEGVLKGLEEVNPRRRKIFSILYNHKLKYMKAGYKHKYASPLADLLAFRKVKNRLGGRIRLMVSGGAPLSTEIEEFMRVTSCAFVAQGYGLTETCGLATLGFPDEMCMIGTVGSPFVYTELRLEEVSDMGYDPLANPPRGEICVKGKTPFAGYYKNPELTNEVMKDGWFHTGDIGEMQPNGVLKIIDRKKHLIKLSQGEYIALEYLEKVYCITPILEDIWVYGDSFKSSLVAVAVPNKENAEKWADQKGLKVSYSELCTLTQFRDYIQSELKSTAERNKLRGFEHIKAIIVEPRTFEGDQELLTATMKKRRNKLLNRYKEGIDNLYKNLAANKR
# B4: HuAAE6: H. umbraculigerum acyl activating enzyme, recombinantly expressed in E. coli and purified; similar to long-chain acyl-CoA synthetases (protein)
# chain: MSVYTVKVEDSRAASGETPSAGPVYRCIYAKDALMELPPGYESPWDFFSESVKRNPKNPALGRRQVIDGKAGGYSWLSYQEAYNSALRIASAIRSRSVNPGDRCGIYGPNCPEWIISMEACNSNGITYVPLYDTLGANAVEYIINHAEISLVFVQENKLSAILSCLPNCSSNLKTIVSFGKFSESQKNEAMEHGVDCFSWEEFSSMGNLEDELPAKNKTDICTIMYTSGTTGEPKGVVLSNRAFMSEVLSMHELLIETDKPGTEEDTYFSFLPLAHIFDQIMETYFIYSGASIGFWQGDIRYLIEDLLVLQPTIFCGVPRVYDRIYTGIMAKISTGGAIRKALFDFAYNYKLRNLEKGIQQDKSAPLLDKLVFDKIKQGFGGRVRLMLSGAAPLPKHVEEFLRVTCCTVLSQGYGLTESCGGCFTSIANVYSMIGTVGVPMTTIEARLESVPEMGYDALSSVPCGEICLRGNTLFSGYHKRDDLTDAVLVDGWFHTGDIGEWQADGAMKIIDRKKNIFKLSQGEYVAVESIESTYSRCPLVTSIWVYGNSFESFLVAVVVPDRVAVEEFAAKNNESGDYASLCKNPNVRKYVLEELNAEAQCNKLRGFEMLKAVHLDPVPFDFERDLITPTFKLKRQQLLKYYKDCVEQLYAEAKTSKK
# Assay: AAE enzyme assay (acyl-CoA synthetase assay) of purified recombinant HuAAE proteins with an array of substrates
# Type: biochemical
# Details: purified recombinant enzyme from E. coli, UPLC-MS/MS peak area (FIG. 6); for activity towards butyric acid (formation of butyryl CoA): substrate butyric acid
# Method: FIG. 6 includes vertical bar graphs showing recombinant enzyme assays of purified H. umbraculigerum acyl activating enzyme (HuAAE) proteins produced in Escherichia coli cells. Peak area is shown. Various alkyl (short-and medium-chain fatty acids) and aromatic (cinnamic and coumaric acids) substrates were used in the enzyme assays.
# All AAE genes from H. umbraculigerum were individually cloned into the pET28b vector and expressed in E. coli BL21 (DE3) cells. Bacterial cells were grown in LB medium at 37° C. When cultures reached Absorbance 600=0.6, protein expression was induced with 200 μM of isopropyl-1-thio-β-d-galactopyranoside (IPTG) at 15° C., for 24 h. Bacterial cells were lysed by sonication in 50 mM Tris-HCl pH 7.5, 500 mM NaCl, 1 mM PMSF, 10% glycerol and protease inhibitor cocktail (Sigma Aldrich). An aliquot of whole-cell extract was kept for further analysis. Soluble protein was purified on Ni-NTA agarose beads (Adar Biotech) and eluted with 300 mM imidazole in buffer containing 50 mM NaH2PO4 pH-7.5 and 300 mM NaCl. The whole-cell extract, and the eluted fractions were analyzed by SDS-PAGE stained with InstatBlue.
# Acyl-CoA synthetase assays were performed in a 20 μl reaction mix that contained 0.1 μg recombinant AAE, 50 mM HEPES pH 9, 8 mM ATP, 10 mM MgCl2, 0.5 mM CoA and 4 mM sodium hexanoate for 10 min at 40° C. Reactions were terminated with 2 μl of 1 M HCl and stored on ice until analysis. After centrifugation at 15 000 g for 5 min at 4° C., the samples were diluted 1:100 in water and analyzed by UPLC-MS/MS (Stout et al., 2012). injections were performed on a UPLC (Waters) connected to a Triple Quad detector (TQ-S, Waters) in multiple reaction monitoring (MRM) mode. The chromatographic separation was achieved using a similar column as previously described. The mobile phase consisted of an aqueous buffer pH 7.0 (10 mM Ammonium Acetate, 5 mM NH4HCO2, phase A) and acetonitrile (phase B). The flow rate was 0.3 ml min^−1, and the column temperature was kept at 25° C. Compounds were analyzed using a 15 min multistep gradient method: initial conditions were 1% B raised to 35% B until 10.5 min, and then raised to 100% B until 11 min, held at 100% B for 1 min, decreased to 1% B until 12.5 min, and held at 1% B until 15 min for re-equilibration of the system. The instrument was operated in positive mode with a capillary voltage of 3.0 kV, and a cone voltage of 50 V. Metabolite identity was confirmed with authentic standards (Sigma Aldrich). Two different transitions were used for analysis of: acetyl-CoA (810.52>303.30, 27.0V; 810.52>428.25, 24.0V); butyryl-CoA (838.58>331.30, 28.0 V; […]); hexanoyl-CoA (866.65>359.40, 28.0 V; 866.65 >428.25, 26.0 V); octanoyl-CoA (894.65>387.55, 30.0 V; 894.65>428.25, 28.0 V); coumaroyl-CoA (914.59>407.37, 30.0 V; 914.59>428.25, 28.0 V); cinnamoyl-CoA (898.59>391.37, 30.0 V; 898.59>428.25, 28.0 V).
# Next, the inventors individually recombinantly expressed six of the eleven AAEs, each in E. coli, purified respective proteins, and examined their activity using array of substrates (acetic acid, butyric acid, hexanoic acid, octanoic acid, cinnamic acid and coumaric acid).
molecule,measurement,setting,value
B1,activity towards butyric acid (formation of butyryl CoA),,efficiently produced butyryl CoA
B2,activity towards butyric acid (formation of butyryl CoA),,efficiently produced butyryl CoA
B3,activity against acetic acid (formation of acetyl CoA),substrate acetic acid,great activity
B4,activity towards cinnamic acid (formation of cinnamoyl CoA),substrate cinnamic acid,reacted
same,activity towards coumaric acid (formation of coumaroyl CoA),substrate coumaric acid,reacted
same,activity towards hexanoic acid,substrate hexanoic acid,very high activity
same,activity towards octanoic acid,substrate octanoic acid,very high activity
